Test system: DNA polymerase III core (alpha-epsilon-theta) (Escherichia coli)
Experiment: single-molecule optical tweezers; fit of exonucleolysis initiation rate vs protein concentration (two-step model)
Settings: biotinylated oligonucleotide ligated at one end; Optical tweezers buffer, salt, pH and temperature not given in the material; constant template force (55 pN for k2)

primer-template junction of single stretched DNA (8.1 kbp pBACgus11 construct or 38.5 kbp lambda DNA)
Kd: 130 nM

From PMC5477539
